B1: EMC1-FLAG [human] / BCAP31, Strep-tagged [not stated] (parent)
chain 1: YEDQVGKFDWRQQYVGKVKFASLEFSPGSKKLVVATEKNVIAALNSRTGEILWRHVDKGTAEGAVDAMLLHGQDVITVSNGGRIMRSWETNIGGLNWEITLDSGSFQALGLVGLQESVRYIAVLKKTTLALHHLSSGHLKWVEHLPESDSIHYQMVYSYGSGVVWALGVVPFSHVNIVKFNVEDGEIVQQVRVSTPWLQHLSGACGVVDEAVLVCPDPSSRSLQTLALETEWELRQIPLQSLDLEFGSGFQPRVLPTQPNPVDASRAQFFLHLSPSHYALLQYHYGTLSLLKNFPQTALVSFATTGEKTVAAVMACRNEVQKSSSSEDGSMGSFSEKSSSKDSLACFNQTYTINLYLVETGRRLLDTTITFSLEQSGTRPERLYIQVFLKKDDSVGYRALVQTEDHLLLFLQQLAGKVVLWSREESLAEVVCLEMVDLPLTGAQAELEGEFGKKADGLLGMFLKRLSSQLILLQAWTSHLWKMFYDARKPRSQIKNEINIDTLARDEFNLQKMMVMVTASGKLFGIESSSGTILWKQYLPNVKPDSSFKLMVQRTTAHFPHPPQCTLLVKDKESGMSSLYVFNPIFGKWSQVAPPVLKRPILQSLLLPVMDQDYAKVLLLIDDEYKVTAFPATRNVLRQLHELAPSIFFYLVDAEQGRLCGYRLRKDLTTELSWELTIPPEVQRIVKVKGKRSSEHVHSQGRVMGDRSVLYKSLNPNLLAVVTESTDAHHERTFIGIFLIDGVTGRIIHSSVQKKAKGPVHIVHSENWVVYQYWNTKARRNEFTVLELYEGTEQYNATAFSSLDRPQLPQVLQQSYIFPSSISAMEATITERGITSRHLLIGLPSGAILSLPKALLDPRRPEIPTEQSREENLIPYSPDVQIHAERFINYNQTVSRMRGIYTAPSGLESTCLVVAYGLDIYQTRVYPSKQFDVLKDDYDYVLISSVLFGLVFATMITKRLAQVKLLNRAWR
chain 2: MSLQWTAVATFLYAEVFVVLLLCIPFISPKRWQKIFKSRLVELLVSYGNTFFVVLIVILVLLVIDAVREIRKYDDVTEKVNLQNNPGAMEHFHMKLFRAQRNLYIAGFSLLLSFLLRRLVTLISQQATLLASNEAFKKQAESASEAAKKYMEENDQLKKGAAVDGGKLDVGNAEVKLEEENRSLKADLQKLKDELASTKQKLEKAENQVLAMRKQSEGLTKEYDRLLEEHAKLQAAVDGPMDKKEE
B2: EMC1-FLAG [human] / TMEM38B, Strep-tagged [not stated] (parent)
chain 1: B1 chain 1
chain 2: MDSPWDELALAFSRTSMFPFFDIAHYLVSVMAVKRQPGAAALAWKNPISSWFTAMLHCFGGGILSCLLLAEPPLKFLANHTNILLASSIWYITFFCPHDLVSQGYSYLPVQLLASGMKEVTRTWKIVGGVTHANSYYKNGWIVMIAIGWARGAGGTIITNFERLVKGDWKPEGDEWLKMSYPAKVTLLGSVIFTFQHTQHLAISKHNLMFLYTIFIVATKITMMTTQTSTMTFAPFEDTLSWMLFGWQQPFSSCEKKSEAKSPSNGVGSLASKPVDVASDNVKKKHTKKNE
B3: EMC1-FLAG [human] / SLC3A2, Strep-tagged [not stated] (parent)
chain 1: B1 chain 1
chain 2: MSQDTEVDMKEVELNELEPEKQPMNAASGAAMSLAGAEKNGLVKIKVAEDEAEAAAAAKFTGLSKEELLKVAGSPGWVRTRWALLLLFWLGWLGMLAGAVVIIVRAPRCRELPAQKWWHTGALYRIGDLQAFQGHGAGNLAGLKGRLDYLSSLKVKGLVLGPIHKNQKDDVAQTDLLQIDPNFGSKEDFDSLLQSAKKKSIRVILDLTPNYRGENSWFSTQVDTVATKVKDALEFWLQAGVDGFQVRDIENLKDASSFLAEWQNITKGFSEDRLLIAGTNSSDLQQILSLLESNKDLLLTSSYLSDSGSTGEHTKSLVTQYLNATGNRWCSWSLSQARLLTSFLPAQLLRLYQLMLFTLPGTPVFSYGDEIGLDAAALPGQPMEAPVMLWDESSFPDIPGAVSANMTVKGQSEDPGSLLSLFRRLSDQRSKERSLLHGDFHAFSAGPGLFSYIRHWDQNERFLVVLNFGDVGLSAGLQASDLPASASLPAKADLLLSTQPGREEGSPLELERLKLEPHEGLLLRFPYAA

Variants of: B1
Assay: co-IP and immunoblot (quantified)
Details: with BCAP31, Strep-tagged;; read off a plot

Row | ratio to parent | Variant
1 | 0.75 | chain 1 F948A F952A
2 | 0.57 | chain 1 V941K S944K S945K

Variants of: B2
Assay: co-IP and immunoblot (quantified)
Details: with TMEM38B, read off a plot

Row | ratio to parent | Variant
3 | 0.4 | chain 1 F948A F952A
4 | 0.78 | chain 1 V941K S944K S945K

Variants of: B3
Assay: co-IP and immunoblot (quantified)
Details: with SLC3A2, Strep-tagged;; read off a plot

Row | ratio to parent | Variant
5 | 0.51 | chain 1 V941K S944K S945K
6 | 0.87 | chain 1 F948A F952A

— article PMC12317982
